Measurements as given in the supplement of paper PMC10567573.

B1: STK38L (parent)
chain: RQLAYSTVGTPDYIAPEVFMQTGY
B2: FCHO1 (parent)
chain: HLELTRKLQDLIKDVLRYGEEQLK

Variants of: B1
Assay: protein stability index of a GFP-peptide fusion (GPS, HEK-293T) (PSI 1-6); higher = more stable
Settings: c terminus: a fixed tail appended
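Further: lentivirally expressed fusions sorted by FACS into six bins by GFP to DsRed ratio, PSI derived from sequencing read proportions per bin multiplied by bin number.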

Protein stability index, by site and new letter:
Q2: K 2.54, H 1.79, D 2.69, M 2.03, N 2.16, S 2.4, P 2.5, V 1.46, T 2.53, R 3.34, G 1.84, L 1.7, F 2.55, Y 1.88, E 2.3, I 1.61, A 2.45, C 2.42, W 1.27
A4: R 2.75, F 1.89, L 2.69, D 2.38, P 2.39, S 2.65, I 1.77, N 2.52, E 2.8, K 3.29, G 2.86, H 2.61, T 2.55, C 2.14, M 2.6, Q 3.1
R1: D 2.71, T 2.56, C 2.06, W 2.84, A 2.38, H 2.38, M 1.79, E 3.06, Y 2.51, G 1.95, L 1.87, N 2.82, I 1.15, Q 2.47, S 2.38, V 2.45, K 2.71, F 3.13, P 3.41
L3: Q 2.61, K 2.68, C 2.06, N 2.56, A 2.55, R 3.09, M 2.72, D 3.37, S 2.65, H 2.43, F 2.33, E 3.15, V 2.73, T 2.84, P 2.44, G 2.74, W 1.53, I 2.24, Y 2.41

Variants of: B2
Assay: as above
Settings: c terminus: a fixed tail appended

Protein stability index of substitutions, site by site:
L11: K 2.38, P 4.34, H 2.51, D 4.29, Y 1.09, N 2.56, A 2.5, T 1.63, G 2.38, E 4.22, C 1.67
L4: Y 2.41, H 3.01, C 4.01, D 2.01, V 3.17, W 3.23, N 1.75, I 2.12, F 3.76, E 1.46, K 1.43, P 1.58
Q9: M 3.55, I 1.22, D 1.24, K 3.73, G 1.31, L 2.26
L8: Y 1.64, T 2.39, A 1.94, D 4.04, R 3.39, H 2.71, P 2.71, C 3.07, N 3.85, S 3.28, F 2.29
Q22: I 2.21, Y 3.18, H 2.41, L 2.14, A 1.68, D 2.43, F 2.07, V 2.32, M 1.91, S 1.84, E 2.37, P 1.79
H1: N 3.04, R 5.3, T 2.28, Y 2.02, Q 2.8, P 1.79, S 2.96, I 1.74, E 2.81, D 2.68, K 1.46, V 1.31, G 2.03, L 1.55, M 2.23, W 1.9
L2: M 5.22, D 2.92, K 2.13, Y 2.04, H 1.64, C 3.33, Q 2.94, E 2.63, G 3.28, T 2.88
L23: N 2.61, R 2.44, G 2.57, S 2.31, A 2.36, E 2.24, T 3.42, D 2.53, H 2.15, K 2, C 1.09, F 3.59
K7: Y 1.78, N 2.03, D 2.27, H 1.99, I 2.06, V 1.74, S 2.75, C 1.55, A 2.33
E3: I 2.88, H 3.08, L 2.7, S 3.71, Q 3.73, P 2.72, T 3.33, F 2.54, A 2.96, M 3.36, K 2.17, C 2.31
R17: P 2.95, F 3.06, I 1.54, S 1.46, C 1.83, A 1.97, G 1.58, M 1.98
G19: C 1.4, Q 1.59, V 2.02, L 2.03, R 2.53, H 2.29, E 1.88, T 3.25, S 1.52, M 1.97, P 1.78, I 2.01, K 1.59
V15: Q 2.49, F 2.12, M 3.23, S 1.88, I 2.96, W 3.69, H 1.83, G 2.15
L16: D 3.32, W 3.05, C 2.91, I 2.39, R 1.69, F 2.77, K 1.44, V 4.13, M 2.69, S 2.09, Q 2.54
T5: V 2.63, Q 3.54, I 2.38, G 2.48, S 3.79, C 2.55, F 2.34, P 1.94, L 3.42, Y 3.13, H 3.29, E 1.88, A 1.89, D 2.53, W 2.05, N 2.14
D10: K 2.72, W 2.82, R 2.58, I 3.93, A 3.54, N 2.62, G 3.66, V 4.56, L 1.44
K13: N 1.9, F 1.59, M 2.22, L 4.09, T 1.67, G 1.78, W 2.16, A 2.14, Q 1.59, P 2.63, H 1.8, S 2, R 2.3, C 2.28, I 4.84
K24: A 1.59, G 1.01, C 1.63, T 1.6, V 4.54, D 1.84, Y 2.8, S 2.66, Q 2.48, P 2.02, H 3.16, L 2.8
E20: K 1.7, H 2.58, V 3.74, W 3.32, A 2.69, S 3.54, C 2.57, T 1.74, M 2.81, Y 2.65
R6: G 2.11, E 1.85, H 3.21, I 1.95, M 1.46, T 1.92, P 1.79, L 1.29, C 2.25, F 1.9, V 1.69, N 1.61, Y 1.9, S 2.4
I12: L 1.77, Y 2.34, N 4.18, A 2.27, H 3.05, W 1.89, D 4.11, K 3.17, M 2.25, G 2.88, R 3.39
D14: A 2.45, N 2.76, C 3.08, V 3.29, F 1.77, Y 2.66, I 2.7, S 3.79, K 4.59, G 1.68
E21: M 3.24, N 3.29, R 2.43, Y 3.04, D 1.81, W 1.81
Y18: D 2.63, C 1.61, Q 3.96, A 2.74, S 1.82, N 1.84, H 2.12
